Reference: patent US20240122909A1, “TREATMENTS OF HEREDITARY ANGIOEDEMA” (KALVISTA PHARMACEUTICALS LIMITED, priority 2021, published 2024)

Tests used:
[1] = background, literature or label; cited from earlier work
[2] = phase 1 studies, repeat dosing; cited from earlier work
[3] = target: plasma kallikrein (Homo sapiens, UniProt P03952); assay: Inhibition of enzyme activity of pre-activated plasma (compound added after DXS); format: biochemical; conditions: added 3.5 minutes post DXS; compound 300, 1000, 3000 nM; C1-INH 3000 nM
Experimental: The ability of the compound to inhibit the enzyme activity of pre-activated plasma was assessed by addition of the compound after DXS stimulation. Aliquots of plasma (20 μL) were mixed with a 2.5 μL solution containing […] fluorogenic substrate (H-DPro-Phe-Arg-AFC) and a 2.5 μL solution of dextran sulphate (DXS; 100 μg/mL) which acted as an activator of the plasma kallikrein-kinin pathway. Enzyme activity was immediately measured by monitoring the accumulation of fluorescence liberated from the substrate by substrate cleavage over 16 minutes. At 3.5 minutes post DXS addition 5 μl of inhibitors or water control are were added into each well. The compound was tested at concentrations of 300, 1000 and 3000 nM. C1-INH at a concentration of 3000 nM and vehicle controls were also included.

Sequence of plasma kallikrein (P03952 391-638 limits assumed): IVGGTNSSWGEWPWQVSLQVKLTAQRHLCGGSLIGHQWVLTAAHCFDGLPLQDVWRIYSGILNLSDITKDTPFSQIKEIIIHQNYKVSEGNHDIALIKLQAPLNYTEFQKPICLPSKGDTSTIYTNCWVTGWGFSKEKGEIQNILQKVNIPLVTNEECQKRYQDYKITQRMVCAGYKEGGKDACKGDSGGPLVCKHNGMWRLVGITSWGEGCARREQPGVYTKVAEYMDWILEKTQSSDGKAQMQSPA
Sequence of plasma kallikrein (P03952 20-390 partner limits assumed): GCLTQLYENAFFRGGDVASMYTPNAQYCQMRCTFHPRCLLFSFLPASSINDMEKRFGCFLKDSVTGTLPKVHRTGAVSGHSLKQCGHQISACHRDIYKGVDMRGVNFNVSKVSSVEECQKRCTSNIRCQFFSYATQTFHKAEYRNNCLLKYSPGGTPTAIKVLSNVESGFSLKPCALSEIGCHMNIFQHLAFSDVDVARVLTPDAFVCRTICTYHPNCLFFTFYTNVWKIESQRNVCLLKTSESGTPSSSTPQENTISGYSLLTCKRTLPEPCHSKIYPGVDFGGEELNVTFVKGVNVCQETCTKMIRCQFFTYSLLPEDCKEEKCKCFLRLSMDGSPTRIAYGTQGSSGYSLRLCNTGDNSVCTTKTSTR

| Molecule | reported adverse reactions [1] | further results |
| --- | --- | --- |
| N#Cc1cccc([C@@H](NCC2CC2)c2ccc(F)c(NC(=O)c3cc(C(F)(F)F)nn3-c3cccc(CN)c3)c2)c1 [Berotralstat] | higher doses were associated with more gastrointestinal adverse effects | – |
| COCc1nn(Cc2ccc(Cn3cc(F)ccc3=O)cc2)cc1C(=O)NCc1nccc(OC)c1F [KVD824, 1-({4-[(5-fluoro-2-oxopyridin-1-yl)methyl]phenyl}methyl)-N-[(3-fluoro-4-methoxypyridin-2-yl)methyl]-3-(methoxymethyl)pyrazole-4-carboxamide] | – | pharmacokinetic profile [2]: consistent pharmacokinetic profile over repeat dosing |
| C1-INH: C1 inhibitor (C1-INH, Sigma Cat #E0518), therapeutic benchmark for HAE [Compound C1-INH] | – | inhibition of enzyme activity after activation of plasma [3]: slower action |
| Ecallantide | risk of anaphylactic reactions | – |
| lanadelumab: recombinant fully human IgG1 kappa light chain monoclonal antibody, active substance of Takhzyro® (antibody, chains of the INN, looked up, V domains shown) VH: EVQLLESGGGLVQPGGSLRLSCAASGFTFSHYIMMWVRQAPGKGLEWVSGIYSSGGITVYADSVKGRFTISRDNSKNTLYLQMNSLRAEDTAVYYCAYRRIGVPRRDEFDIWGQGTMVTVSS VL: DIQMTQSPSTLSASVGDRVTITCRASQSISSWLAWYQQKPGKAPKLLIYKASTLESGVPSRFSGSGSGTEFTLTISSLQPDDFATYYCQQYNTYWTFGQGTKVEIK | hypersensitivity, injection site pain, injection site erythema, and injection site bruising | – |
